Experimental data reported in patent publication US20250276075A1, “METHODS OF TREATING AXL-EXPRESSING CANCERS WITH ANTI-AXL ANTIBODIES, ANTIBODY FRAGMENTS AND THEIR IMMUNOCONJUGATES” (BIOATLA, INC., priority 2020, published 2025).

T1: Axl (Homo sapiens, UniProt P30530)
T1 sequence (P30530 26-451 limits assumed): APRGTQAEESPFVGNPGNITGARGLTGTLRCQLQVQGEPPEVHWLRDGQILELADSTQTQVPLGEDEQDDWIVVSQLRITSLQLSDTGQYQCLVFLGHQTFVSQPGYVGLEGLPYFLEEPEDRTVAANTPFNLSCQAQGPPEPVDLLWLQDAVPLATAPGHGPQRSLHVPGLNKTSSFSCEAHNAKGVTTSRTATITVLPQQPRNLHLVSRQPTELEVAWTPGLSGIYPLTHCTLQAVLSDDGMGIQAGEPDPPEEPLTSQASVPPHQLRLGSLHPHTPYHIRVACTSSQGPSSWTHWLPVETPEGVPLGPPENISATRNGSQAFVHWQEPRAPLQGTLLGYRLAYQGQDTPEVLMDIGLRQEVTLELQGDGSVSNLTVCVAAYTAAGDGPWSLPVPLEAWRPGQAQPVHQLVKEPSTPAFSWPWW

B1: HC-T030A (antibody, V domains shown)
VH: EVQLVQSGAEVKKPGATVKISCKVSGYSFAGHTMNWIRQPPGKGLEWIGLIKPSNGGTSYNQKFKGRVTISADKSISTAYLQWSSLKASDTAMYYCAHGHYESYFAMDYWGQGTLVTVSS
VL: DIQMTQSPSSLSASVGDRVTITCKASQDVSSAVAWYQQKPGQAPRLLIYWASTRHTGVPSRFSGSGSGTEFTLTISSLQPDDFATYYCQEHFSTPLTFGQGTKVEIK
B2: HC-N035I (antibody, V domains shown)
VH: EVQLVQSGAEVKKPGATVKISCKVSGYSFTGHTMIWIRQPPGKGLEWIGLIKPSNGGTSYNQKFKGRVTISADKSISTAYLQWSSLKASDTAMYYCAHGHYESYFAMDYWGQGTLVTVSS
VL: DIQMTQSPSSLSASVGDRVTITCKASQDVSSAVAWYQQKPGQAPRLLIYWASTRHTGVPSRFSGSGSGTEFTLTISSLQPDDFATYYCQEHFSTPLTFGQGTKVEIK
B3: LC-H091S (antibody, V domains shown)
VH: EVQLVQSGAEVKKPGATVKISCKVSGYSFTGHTMNWIRQPPGKGLEWIGLIKPSNGGTSYNQKFKGRVTISADKSISTAYLQWSSLKASDTAMYYCAHGHYESYFAMDYWGQGTLVTVSS
VL: DIQMTQSPSSLSASVGDRVTITCKASQDVSSAVAWYQQKPGQAPRLLIYWASTRHTGVPSRFSGSGSGTEFTLTISSLQPDDFATYYCQESFSTPLTFGQGTKVEIK
B4: LC-V029W (antibody, V domains shown)
VH: EVQLVQSGAEVKKPGATVKISCKVSGYSFTGHTMNWIRQPPGKGLEWIGLIKPSNGGTSYNQKFKGRVTISADKSISTAYLQWSSLKASDTAMYYCAHGHYESYFAMDYWGQGTLVTVSS
VL: DIQMTQSPSSLSASVGDRVTITCKASQDWSSAVAWYQQKPGQAPRLLIYWASTRHTGVPSRFSGSGSGTEFTLTISSLQPDDFATYYCQEHFSTPLTFGQGTKVEIK
B5: LC-H091V (antibody, V domains shown)
VH: EVQLVQSGAEVKKPGATVKISCKVSGYSFTGHTMNWIRQPPGKGLEWIGLIKPSNGGTSYNQKFKGRVTISADKSISTAYLQWSSLKASDTAMYYCAHGHYESYFAMDYWGQGTLVTVSS
VL: DIQMTQSPSSLSASVGDRVTITCKASQDVSSAVAWYQQKPGQAPRLLIYWASTRHTGVPSRFSGSGSGTEFTLTISSLQPDDFATYYCQEVFSTPLTFGQGTKVEIK
B6: LC-H091T (antibody, V domains shown)
VH: EVQLVQSGAEVKKPGATVKISCKVSGYSFTGHTMNWIRQPPGKGLEWIGLIKPSNGGTSYNQKFKGRVTISADKSISTAYLQWSSLKASDTAMYYCAHGHYESYFAMDYWGQGTLVTVSS
VL: DIQMTQSPSSLSASVGDRVTITCKASQDVSSAVAWYQQKPGQAPRLLIYWASTRHTGVPSRFSGSGSGTEFTLTISSLQPDDFATYYCQETFSTPLTFGQGTKVEIK
B7: LC-H091Y (antibody, V domains shown)
VH: EVQLVQSGAEVKKPGATVKISCKVSGYSFTGHTMNWIRQPPGKGLEWIGLIKPSNGGTSYNQKFKGRVTISADKSISTAYLQWSSLKASDTAMYYCAHGHYESYFAMDYWGQGTLVTVSS
VL: DIQMTQSPSSLSASVGDRVTITCKASQDVSSAVAWYQQKPGQAPRLLIYWASTRHTGVPSRFSGSGSGTEFTLTISSLQPDDFATYYCQEYFSTPLTFGQGTKVEIK
B8: LC-V029G (antibody, V domains shown)
VH: EVQLVQSGAEVKKPGATVKISCKVSGYSFTGHTMNWIRQPPGKGLEWIGLIKPSNGGTSYNQKFKGRVTISADKSISTAYLQWSSLKASDTAMYYCAHGHYESYFAMDYWGQGTLVTVSS
VL: DIQMTQSPSSLSASVGDRVTITCKASQDGSSAVAWYQQKPGQAPRLLIYWASTRHTGVPSRFSGSGSGTEFTLTISSLQPDDFATYYCQEHFSTPLTFGQGTKVEIK
B9: HC-E102N (antibody, V domains shown)
VH: EVQLVQSGAEVKKPGATVKISCKVSGYSFTGHTMNWIRQPPGKGLEWIGLIKPSNGGTSYNQKFKGRVTISADKSISTAYLQWSSLKASDTAMYYCAHGHYNSYFAMDYWGQGTLVTVSS
VL: DIQMTQSPSSLSASVGDRVTITCKASQDVSSAVAWYQQKPGQAPRLLIYWASTRHTGVPSRFSGSGSGTEFTLTISSLQPDDFATYYCQEHFSTPLTFGQGTKVEIK
B10: LC-V029D (antibody, V domains shown)
VH: EVQLVQSGAEVKKPGATVKISCKVSGYSFTGHTMNWIRQPPGKGLEWIGLIKPSNGGTSYNQKFKGRVTISADKSISTAYLQWSSLKASDTAMYYCAHGHYESYFAMDYWGQGTLVTVSS
VL: DIQMTQSPSSLSASVGDRVTITCKASQDDSSAVAWYQQKPGQAPRLLIYWASTRHTGVPSRFSGSGSGTEFTLTISSLQPDDFATYYCQEHFSTPLTFGQGTKVEIK
B11: LC-V029N (antibody, V domains shown)
VH: EVQLVQSGAEVKKPGATVKISCKVSGYSFTGHTMNWIRQPPGKGLEWIGLIKPSNGGTSYNQKFKGRVTISADKSISTAYLQWSSLKASDTAMYYCAHGHYESYFAMDYWGQGTLVTVSS
VL: DIQMTQSPSSLSASVGDRVTITCKASQDNSSAVAWYQQKPGQAPRLLIYWASTRHTGVPSRFSGSGSGTEFTLTISSLQPDDFATYYCQEHFSTPLTFGQGTKVEIK
B12: LC-A032L (antibody, V domains shown)
VH: EVQLVQSGAEVKKPGATVKISCKVSGYSFTGHTMNWIRQPPGKGLEWIGLIKPSNGGTSYNQKFKGRVTISADKSISTAYLQWSSLKASDTAMYYCAHGHYESYFAMDYWGQGTLVTVSS
VL: DIQMTQSPSSLSASVGDRVTITCKASQDVSSLVAWYQQKPGQAPRLLIYWASTRHTGVPSRFSGSGSGTEFTLTISSLQPDDFATYYCQEHFSTPLTFGQGTKVEIK
B13: HC-W110H (antibody, V domains shown)
VH: EVQLVQSGAEVKKPGATVKISCKVSGYSFTGHTMNWIRQPPGKGLEWIGLIKPSNGGTSYNQKFKGRVTISADKSISTAYLQWSSLKASDTAMYYCAHGHYESYFAMDYHGQGTLVTVSS
VL: DIQMTQSPSSLSASVGDRVTITCKASQDVSSAVAWYQQKPGQAPRLLIYWASTRHTGVPSRFSGSGSGTEFTLTISSLQPDDFATYYCQEHFSTPLTFGQGTKVEIK

Experiments:
Axl [1] = molecular target: Axl (UniProt P30530); assay: ELISA, 1:9 dilution
Axl [2] = molecular target: T1, Axl; assay: Affinity ELISA of CPE mutant antibodies for binding to Axl at pH 6.0 over pH 7.4; conditions: for Affinity ELISA CPE mutant ratio (1:3, pH 6.0/7.4): 1:3 dilution; for Affinity ELISA CPE mutant ratio (1:9, pH 6.0/7.4): 1:9 dilution
From the text: The DNA encoding the wild-type antibody was evolved to generate a mutant antibody library using Comprehensive Positional Evolution (CPE), which each position in the template antibody is randomized one at a time. Each mutant antibody in the library has only one single point mutation. The mutant antibodies in the library were generated by simultaneously screening for selective binding affinity to Axl at pH 6.0 over pH 7.4 by ELISA. Two mutant antibody dilutions were used: 1:3 and 1:9 dilutions. The mutant antibodies that have at least 1.5 ratio of binding affinity at pH 6.0 to at pH 7.4 under either 1:3 or 1:9 dilution are selected as conditionally active antibodies, with the single point mutations indicated in each of the heavy chain and light chain variable region (Tables 1 and 2).
A wild-type antibody to Axl was selected as the template antibody (with a heavy chain variable region of 063-hum10F10-HC in FIG. 1A and a light chain variable region of […]). The DNA encoding the wild-type antibody was evolved to generate a mutant antibody library using Comprehensive Positional Evolution (CPE), a method by which each position in the template antibody is randomized one at a time. Each mutant antibody in the library has only one single point mutation. The mutant antibodies in the library were generated by simultaneously screening for selective binding affinity to Axl at pH 6.0 over pH 7.4 as determined by ELISA.
Simultaneously, the expression level of the mutant antibodies was also optimized for the purpose of higher fields in a manufacturing process. The screening was done in serum using a FLAG tag because there were human antibodies in the serum which might cause false positives for the screening. The screening buffer was a carbonate buffer (Krebs buffer with ringer-standard buffer but different from PBS). […] Some of the selected mutant antibodies (scFv) were represented in FIG. 2 with their higher activity at pH 6.0 than at pH 7.4, while their activity ratios between pH 6.0 to pH 7.4 were at least 11 fold (FIG. 3).

Axl [3] = molecular target: Axl (UniProt P30530); assay: ELISA, 1:3 dilution
[4] = heavy chain variable region mutants
[5] = light chain variable region mutants

| Molecule | Affinity ELISA CPE mutant ratio (1:9, pH 6.0/7.4) (Axl [1]) | Affinity ELISA CPE mutant ratio (1:3, pH 6.0/7.4) (Axl [2]; [4]) | Affinity ELISA CPE mutant ratio (1:9, pH 6.0/7.4) (Axl [2]; [4]) | Affinity ELISA CPE mutant ratio (1:3, pH 6.0/7.4) (Axl [3]) | Affinity ELISA CPE mutant ratio (1:3, pH 6.0/7.4) (Axl [2]; [5]) | Affinity ELISA CPE mutant ratio (1:9, pH 6.0/7.4) (Axl [2]; [5]) |
| --- | --- | --- | --- | --- | --- | --- |
| B1 | 1.76 | 1.292 | 1.762 | 1.29 | – | – |
| B2 | 1.12 | 2.814 | 1.121 | 2.81 | – | – |
| B3 | 1.34 | – | – | 1.76 | 1.758 | 1.336 |
| B4 | 2.35 | – | – | 2.31 | 2.310 | 2.353 |
| B5 | 1.17 | – | – | 4.13 | 4.133 | 1.171 |
| B6 | 3.78 | – | – | 3.78 | 3.779 | 3.781 |
| B7 | 5.13 | – | – | 3.93 | 3.931 | 5.126 |
| B8 | 1.8 | – | – | 1.94 | 1.939 | 1.803 |
| B9 | 1.57 | 1.520 | 1.567 | 1.52 | – | – |
| B10 | 2.68 | – | – | 2.88 | 2.882 | 2.679 |
| B11 | 2.65 | – | – | 2.6 | 2.595 | 2.652 |
| B12 | 2.27 | – | – | 1.98 | 1.982 | 2.272 |
| B13 | 0.932 | 7.993 | 0.932 | 7.99 | – | – |
